In US20090036382A1, “TGF-Beta Modulators and Use Thereof” (Universita' Degli Studi Di Padova, priority 2006, published 2009):

B1: multimerin 2: emilin family protein produced by endothelial cells, GenBank NP—079032 (protein)
chain: QASSTSLSDLQSSRTPGVWKAEAEDTGKDPVGRNWCPYPMSKLVTLLALCKTEKFLIHSQQPCPQGAPDCQKVKVMYRMAHKPVYQVKQKVLTSLAWRCCPGYTGPNCEHHDSMAIPEPADPGDSHQEPQDGPVSFKPGHLAAVINEVEVQQEQQEHLLGDLQNDVHRVADSLPGLWKALPGNLTAAVMEANQTGHEFPDRSLEQVLLPHVDTFLQVHFSPIWRSFNQSLHSLTQAIRNLSLDVEANRQAISRVQDSAVARADFQELGAKFEAKVQENTQRVGQLRQDVEDRLHAQHFTLHRSISELQADVDTKLKRLHKAQEAPGTNGSLVLATPGAGARPEPDSLQARLGQLQRNLSELHMTTARREEELQYTLEDMRATLTRHVDEIKELYSESDETFDQISKVERQVEELQVNHTALRELRVILMEKSLIMEENKEEVERQLLELNLTLQHLQGGHADLIKYVKDCNCQKLYLDLDVIREGQRDATRALEETQVSLDERRQLDGSSLQALQNAVDAVSLAVDAHKAEGERARAATSRLRSQVQALDDEVGALKAAAAEARHEVRQLHSAFAALLEDALRHEAVLAALFGEEVLEEMSEQTPGPLPLSYEQIRVALQDAASGLQEQALGWDELAARVTALEQASEPPRPAEHLEPSHDAGREEAATTALAGLARELQSLSNDVKNVGRCCEAEAGAGAASLNASLHGLHNALFATQRSLEQHQRLFHSLFGNFQGLMEANVSLDLGKLQTMLSRKGKKQQKDLEAPRKRDKKEAEPLVDIRVTGPVPGALGAALWEAGSPVAFYASFSEGTAALQTVKFNTTYINIGSSYFPEHGYFRAPERGVYLFAVSVEFGPGPGTGQLVFGGHHRTPVCTTGQGSGSTATVFAMAELQKGERVWFELTQGSITKRSLSGTAFGGFLMFKT
B2: emilin1ΔEMI: emilin protein lacking the EMI-domain, used as control (protein)
chain: ASYPPRGFSLYTGSSGALSPGGPQAQIAPRPASSPAPALGPASSTPRPLARPARPNLSGSSAGSPLSGLGGEGPGESEKVQQLEEQVQSLTKELQGLRGVLQGLSGRLAEDVQRAVETAFNGRQQPADAAARPGVHETLNEIQHQLQLLDTRVSTHDQELGHLNNHHGGSSSSGGSRAPAPASAPPGPSEELLRQLEQRLQESCSVCLAGLDGFRRQQQEDRERLRAMEKLLASVEERQRHLAGLAVGRRPPQECCSPELGRRLAELERRLDVVAGSVTVLSGRRGTELGGAAGQGGHPPGYTSLASRLSRLEDRFNSTLGPSEEQEESWPGAPGGLSHWLPAARGRLEQLGGLLANVSGELGGRLDLLEEQVAGAMQACGQLCSGAPGEQDSQVSEILSALERRVLDSEGQLRLVGSGLHTVEAAGEARQATLEGLQEVVGRLQDRVDAQDETAAEFTLRLNLTAARLGQLEGLLQAHGDEGCGACGGVQEELGRLRDGVERCSCPLLPPRGPGAGPGVGGPSRGPLDGFSVFGGSSGSALQALQGELSEVILSFSSLNDSLNELQTTVEGQGADLADLGATKDRIISEINRLQQEATEHATESEERFRGLEEGQAQAGQCPSLEGRLGRLEGVCERLDTVAGGLQGLREGLSRHVAGLWAGLRETNTTSQMQAALLEKLVGGQAGLGRRLGALNSSLQLLEDRLHQLSLKDLTGPAGEAGPPGPPGLQGPPGPAGPPGSPGKDGQEGPIGPPGPQGEQGVEGAPAAPVPQVAFSAALSLPRSEPGTVPFDRVLLNDGGYYDPETGVFTAPLAGRYLLSAVLTGHRHEKVEAVLSRSNQGVARVDSGGYEPEGLENKPVAESQPSPGTLGVFSLILPLQAGDTVCVDLVMGQLAHSEEPLTIFSGALLYGDPELEHA

Test system: pro TGF-β1
Assay: CAGA12-lux luciferase reporter in HEK293T cells co-transfected with pro TGF-β1 vector
Format: cell-based, human
Settings: CAGA12-lux, co-transfection with pro TGF-β1 vector, FIG. 2B, 2C
Text: • The construct for emilin 1 expression was engineered in pCS2 vector (Rupp R. A. et al., 1994, Genes Dev 8, 1311-1323) (for a physical map of the vector, see the site faculty.washington.edu/rtmoon/pcs2+.html) as described (Zanetti M. et al., 2004, Mol Cell Biol 24, 638-650); the vector used for proTGF-β expression in MEF and HEK293T cells is pCDNA3.1 (Invitrogen). Vectors containing the coding sequence for human pro TGF-β are described in Young and Murphy-Ullrich, 2004 (Young and Murphy-Ullrich, 2004, J Biol Chem 279, 38032-38039). The human pro TGF-β cDNA sequence is reported in the data bank (NP_000660; protein 000651). • The vector for Furin/SPC 1 expression is pCDNA3.1 (Invitrogen) • p15 and CAGA 12 promoter fragments are described in Jonk L. J. et al., 1998, J Biol Chem 273, 21145-21152 […]. • Constructs containing Flag sequences are described in Young G. D and Murphy-Ullrich J E, 2004, J Biol Chem 279, 38032-38039. • Constructs containing the Flag epitope (e.g. Flag-EMI-domain-GPI) were prepared as described in Chubet R G et al. Biotechniques 1996; 20(1):136-141 and detected by anti-Flag antibody (Kodak Inc.). • Constructs containing the GPI anchor were prepared as described in the Manual “Current Protocols in Cell Biology” Howard R. Petty Wayne State University, Detroit, Mich.; Juan S. Bonifacino, Mary Dasso, Joe B. Harford, Jennifer Lippincott-Schwartz, and Kenneth M. Yamada (eds.), Copyright C 2003 John Wiley & Sons, Inc. (GPI-anchor). In the construct Flag-EMI domain-GPI, the Flag sequence was inserted at the N-terminus after the signal peptide, while the GPI-anchor sequence was placed at the COOH-terminal end. • The construct emilin 1-KDEL was obtained by inserting the KDEL coding sequence described by Munro S., and Pelham, H. R., 1987, Cell 48, 899-907 upstream the emilin 1 STOP codon. • The construct containing the type II TGF-β receptor with HA epitope was described in Wrana J. L. et al., 1994, Nature 370, 341-347. • supplier of the drugs used: SP600125 (Calbiochem), SB431542 (Tocris). • Purified recombinant LAP and TGF-β1 proteins were purchased from (R&D Systems)
To verify how emilin or the EMI domain can contrast TGF-β1 activity independently from receptor binding, HEK293T cells were transfected with a construct coding luciferase placed under control of a TGF-β activated promoter: CAGA12-lux (Jonk et al., 1998) alone or in combination with a emilin1 expression vector (500 ng) as shown in FIG. 2B. After transfection, cells were treated (black bar) or not treated (white bar) with 5 ng/ml recombinant TGF-1 (lanes 1 and 2). Column bars from 3 to 6 report luciferase expression values in experiments with cells co-transfected with the expression vector for emilin1 (or EMI-domain or emilin1ΔEMI) alone (white bars) or in combination with the vector encoding pro TGF-β1 (black bars). Values show the mean±st. dev.
As further validation of the above observations, HEK293T cells were cotransfected with expression plasmids carrying the cDNAs shown in the summary scheme above the figure, along with CAGA12-lux and CMV-lacZ constructs, and luciferase expression levels were measured.

| Molecule | Effect on luciferase expression induced by pro TGF-β1 |
| --- | --- |
| emilin 2: emilin family protein, GenBank NP-114437 | antagonize TGF-β activity at the of pro-TGF-β level |
| B1 | antagonize TGF-β activity at the of pro-TGF-β level |
| B2 | showed no effect on pro TGF-β |
